From patent publication US20210380680A1 (ZLLP, published 2021)
Read-outs that look alike come from different tables or passages of the source. Values belong to the molecule of their own block, whether it stands above or below them.

How the values were obtained:
[1] = target: CLDN18.2 endogenously expressed on SNU620 gastric cancer cells (UniProt P56856); assay: FACS Exp. 3, SNU620 cells
[2] = target: T1, human Claudin 18.2 (CLDN18.2) (human, UniProt P56856-2 1-261); assay: FACS Exp. 1, MFI ratio CHO-18.2 over CHO-18.1
[3] = target: T1, human Claudin 18.2 (CLDN18.2); assay: FACS Exp. 2, MFI ratio CHO-18.2 over CHO-18.1
[4] = target: T1, human Claudin 18.2 (CLDN18.2); assay: FACS
[5] = target: T1, human Claudin 18.2 (CLDN18.2); assay: FACS on CHO-CLDN18.2 cells
Method: Binding curves were generated to rank the binding affinities of hybridoma antibodies. Briefly, a total of 1×10⁵ CHO-CLDN18.2 cells for each well were seeded in 96-well plate and washed by FACS buffer (DPBS containing 2% FBS) twice. Cells were incubated by series diluted purified hybridoma antibodies for 1 h. After primary antibody incubation, cells were washed by FACS buffer for two times. […] FlowJo software was used for analysis. Data was plotted as the logarithm of antibody concentration versus mean fluorescence signals. Nonlinear regression analysis was performed by GraphPad Prism 6 (GraphPad Software) and EC50 values were calculated.

[6] = target: T1, human Claudin 18.2 (CLDN18.2); assay: cell-based or functional assay
[7] = target: T1, human Claudin 18.2 (CLDN18.2); assay: cell-based or functional assay; remark: listed apart in the source
[8] = target: T1, human Claudin 18.2 (CLDN18.2); assay: FACS on CHO-CLDN18.2 cells; remark: listed apart in the source
[9] = target: T1, human Claudin 18.2 (CLDN18.2); assay: cell-based or functional assay; remark: listed apart in the source
[10] = target: T1, human Claudin 18.2 (CLDN18.2); assay: cell-based or functional assay; remark: listed apart in the source
[11] = target: T1, human Claudin 18.2 (CLDN18.2); assay: cell-based or functional assay; remark: listed apart in the source

MFI SNU620 (@30 ug/ml) [1]: 15.7 MFI | MFI CHO-18.2/CHO-18.1 (@30 ug/ml) [2]: 1.1 | MFI CHO-18.2/CHO-18.1 (@30 ug/ml) [3]: 1
Molecule: human IgG1 isotype control (antibody)

binding result [4]: binds
B1: 364D1A7-VL-N31E (antibody, human IgG1, kappa, V domains shown)
VH: DVQLVESGGGLVQPGGSRKLSCAASGFTFSSFGMHWVRQAPEKGLEWVAYISSGSGSIYYADTVKGRFTLSRDNPKNTLFLQMTSLRSEDTAIYYCATSYYYGNALEYWGQGTSVTVSS
VL: DVVLTQSPSSLTVTEGEKVSMSCKSSQSLFESGNQKNYLTWYQQKPGQTPTLLIYWASTRKSGVPDRFTGSGSGTDFTLTINTVQAEDLAVYYCQNVYSYPLTFGAGTKLDLKR
notes: chimeric human IgG1, PTM site removed

EC50 [5]: 5.22 nM
B2: 364D1A7 (mouse hybridoma antibody) (antibody, V domains shown)
VH: DVQLVESGGGLVQPGGSRKLSCAASGFTFSSFGMHWVRQAPEKGLEWVAYISSGSGSIYYADTVKGRFTLSRDNPKNTLFLQMTSLRSEDTAIYYCATSYYYGNALEYWGQGTSVTVSS
VL: DVVLTQSPSSLTVTEGEKVSMSCKSSQSLFNSGNQKNYLTWYQQKPGQTPTLLIYWASTRKSGVPDRFTGSGSGTDFTLTINTVQAEDLAVYYCQNVYSYPLTFGAGTKLDLK
notes: purified mouse IgG from hybridoma

binding result [4]: binds
B3: 282A12F3-VH-N60E (antibody, human IgG1, kappa, V domains shown)
VH: QVQLKESGPVLVQPSQTLSLTCTVAGFSLTSYNVYWVRQPPGKGLEWMGVIWNTGATRYESTLKSRLSISKDTSKSQVFLKMNSLQTEDTATYYCARDSAMPAIPFAYWGQGTLVTVSS
VL: DIVMTQSPSSLAVSAGETVTINCKSSQSLFGSVRQKNYLAWYQQKPGQSPKLLIYLASTRESGVPDRFIGSGSGTDFTLTISSVQAEDLAKYYCQQYYDIPWTFGGGTKLELKR
notes: as for B1

binding result [4]: binds
B4: 282A12F3-VH-N60Q (antibody, human IgG1, kappa, V domains shown)
VH: QVQLKESGPVLVQPSQTLSLTCTVAGFSLTSYNVYWVRQPPGKGLEWMGVIWNTGATRYQSTLKSRLSISKDTSKSQVFLKMNSLQTEDTATYYCARDSAMPAIPFAYWGQGTLVTVSS
VL: DIVMTQSPSSLAVSAGETVTINCKSSQSLFGSVRQKNYLAWYQQKPGQSPKLLIYLASTRESGVPDRFIGSGSGTDFTLTISSVQAEDLAKYYCQQYYDIPWTFGGGTKLELKR
notes: as for B1

MFI SNU620 (@30 ug/ml) [1]: 69.6 MFI | MFI_CHO-18.2/CHO-18.1 (@30 ug/ml) [2]: 262
B5: hz282-1 (antibody, V domains shown)
VH: QVQLQESGPGLVKPSETLSLTCTVSGFSLTSYNVYWIRQPPGKGLEWIGVIWNTGATRYNSALKSRVTISVDTSKNQFSLKLSSVTAADTAVYYCARDSAMPAIPFAYWGQGTLVTVSS
VL: DIVMTQSPDSLAVSLGERATINCKSSQSLFGSVRQKNYLAWYQQKPGQPPKLLIYLASTRESGVPDRFSGSGSGTDFTLTISSLQAEDVAVYYCQQYYDIPWTFGGGTKVEIK
notes: humanized IgG; constant regions not specified; also called hz282-l

MFI SNU620 (@30 ug/ml) [1]: 308 MFI | MFI_CHO-18.2/CHO-18.1 (@30 ug/ml) [2]: 163
B6: hz282-9 (antibody, V domains shown)
VH: QVQLQESGPGLVKPSETLSLTCTVSGFSLTSYNVYWIRQPPGKGLEWIGVIWNTGATRYNSALKSRVTISVDTSKNQFSLKLSSVTAADTAVYYCARDSAMPAIPFAYWGQGTLVTVSS
VL: DIQMTQSPSSLSASVGDRVTITCKSSQSLFGSVRQKNYLAWYQQKPGKAPKLLIYLASTRESGVPSRFSGSGSGTDFTLTISSLQPEDFATYYCQQYYDIPWTFGGGTKVEIK
notes: humanized IgG; constant regions not specified

MFI SNU620 (@30 ug/ml) [1]: 135 MFI | MFI_CHO-18.2/CHO-18.1 (@30 ug/ml) [2]: 310
B7: hz282-5 (antibody, V domains shown)
VH: QVQLQESGPGLVKPSETLSLTCTVSGFSLTSYNVYWIRQPPGKGLEWIGVIWNTGATRYNSALKSRVTISVDTSKNQFSLKLSSVTAADTAVYYCARDSAMPAIPFAYWGQGTLVTVSS
VL: DIVMTQSPDSLAVSLGERATINCKSSQSLFGSVRQKNYLAWYQQKPGQSPKLLIYLASTRESGVPDRFSGSGSGTDFTLTISSLQAEDVAKYYCQQYYDIPWTFGGGTKVEIK
notes: as for B6

MFI SNU620 (@30 ug/ml) [1]: 176 MFI | MFI_CHO-18.2/CHO-18.1 (@30 ug/ml) [2]: 249
B8: hz282-17 (antibody, V domains shown)
VH: QVQLQESGPGLVKPSETLSLTCTVSGFSLTSYNVYWIRQPPGKGLEWIGVIWNTGATRYNSALKSRVTISVDTSKNQFSLKLSSVTAADTAVYYCARDSAMPAIPFAYWGQGTLVTVSS
VL: DIVMTQSPSSLSASVGDRVTINCKSSQSLFGSVRQKNYLAWYQQKPGKSPKLLIYLASTRESGVPDRFSGSGSGTDFTLTISSLQPEDFAKYYCQQYYDIPWTFGGGTKVEIK
notes: as for B6

MFI SNU620 (@30 ug/ml) [1]: 144 MFI | MFI_CHO-18.2/CHO-18.1 (@30 ug/ml) [2]: 201
B9: hz282-13 (antibody, V domains shown)
VH: QVQLQESGPGLVKPSETLSLTCTVSGFSLTSYNVYWIRQPPGKGLEWIGVIWNTGATRYNSALKSRVTISVDTSKNQFSLKLSSVTAADTAVYYCARDSAMPAIPFAYWGQGTLVTVSS
VL: DIQMTQSPSSLSASVGDRVTITCKSSQSLFGSVRQKNYLAWYQQKPGKSPKLLIYLASTRESGVPDRFSGSGSGTDFTLTISSLQPEDFAKYYCQQYYDIPWTFGGGTKVEIK
notes: as for B6

ADCC EC50, CHO-CLDN18.2, FcR-TANK [6]: 0.001 nM | ADCC EC50, NUGC4-CLDN18.2, PBMC [7]: 0.0146 nM
B10: 413H9F8-cp2-V2-DL (antibody, V domains shown)
VH: DVQLVESGGGLVQPGGSLRLSCAASGFTFSSFGMHWVRQAPGKGLEWVAYISSGSSPIYYVDKLKGRFTISRDNAKNSLYLQMNSLRAEDTAVYYCARAGYAVRNALDYWGQGTLVTVSS
VL: EIVMTQSPPTLSLSPGERVTLSCKSSQSLLNVGNQKNYLAWYQQKPGQAPRLLIYGASTRESGIPARFSGSGSGTDFTLTISSLQPEDFAVYYCQNDLFYPLTFGGGTKVEIK

ADCC EC50, NUGC4-CLDN18.2, PBMC [7]: 0.0148 nM
B11: 413H9F8-H2L2-V2-DL (antibody, V domains shown)
VH: EVQLVESGGGLVQPGGSLRLSCAASGFTFSSFGMHWVRQAPGKGLEWVAYISSGSSPIYYVDKLKGRFTISRDNAKNSLYLQMNSLRAEDTAVYYCARAGYAVRNALDYWGQGTLVTVSS
VL: DIVMTQSPDSLAVSLGERATINCKSSQSLLNVGNQKNYLAWYQQKPGQPPKLLIYGASTRESGVPDRFSGSGSGTDFTLTISSLQAEDVAVYFCQNDLFYPLTFGGGTKVEIK

ADCC EC50, NUGC4-CLDN18.2, PBMC [7]: 0.0046 nM
B12: 413H9F8-H2L2-MG-DL (antibody, V domains shown)
VH: EVQLVESGGGLVQPGGSLRLSCAASGFTFSSFGMHWVRQAPGKGLEWVAYISSGSSPIYYVDKLKGRFTISRDNAKNSLYLQMNSLRAEDTAVYYCARAGYAVRNALDYWGQGTLVTVSS
VL: DIVMTQSPDSLAVSLGERATINCKSSQSLLNVGNQKNYLAWYQQKPGQPPKLLIYGASTRESGVPDRFSGSGSGTDFTLTISSLQAEDVAVYFCQNDLFYPLTFGGGTKVEIK

EC50 [8]: 1.97 nM | CDC EC50, human serum, CHO-CLDN18.2 [9]: 0.84 nM | ADCC EC50, NUGC4-CLDN18.2, PBMC [7]: 0.48 nM | % ADCC @ 6.67 nM, NCI-N87-CLDN18.2, FcR-TANK [10]: 13.7% | ADCC EC50, NCI-N87-CLDN18.2, FcR-TANK [10]: 0.33 nM | ADCC EC50, NUGC4-CLDN18.2, PBMC [11]: 6.14 nM
B13: 413H9F8-H2L2 (antibody, V domains shown)
VH: EVQLVESGGGLVQPGGSLRLSCAASGFTFSSFGMHWVRQAPGKGLEWVAYISSGSSPIYYVDKLKGRFTISRDNAKNSLYLQMNSLRAEDTAVYYCARAGYAVRNALDYWGQGTLVTVSS
VL: DIVMTQSPDSLAVSLGERATINCKSSQSLLNVGNQKNYLAWYQQKPGQPPKLLIYGASTRESGVPDRFSGSGSGTDFTLTISSLQAEDVAVYFCQNDLFYPLTFGGGTKVEIK
notes: as for B6
% specific cytotoxicity @ 6.67 nM, NUGC4-CLDN18.2, PBMC [11]: 33.2%

EC50 [5]: 3.26 nM
B14: 357B8F8 (mouse hybridoma antibody) (antibody, V domains shown)
VH: QVQLKESGPGLVAPSQSLSITCTVSGFSLTSYGVHWVRQPPGKGLEWLGVIWPGGNTNYNSALMSRLSISKDNSKSQVFLKMNSLQTDDTAMYYCARDRRLAMDYWGQGTSVTVSS
VL: DIVMTQSPSSLTVTAGEKVTMTCKSSQSLLNSGNQKNYLTWYQQKPGQPPKLLIYWASTRESGVPDRFTGSGSGTDFTLTISILQAEDLAVYYCQNDYSYPFTFGSGTKLEIK
notes: as for B2

EC50 [5]: 3.68 nM
B15: Ms175D10 (antibody, V domains shown)
VH: QVQLQQPGAELVRPGASVKLSCKASGYTFTSYWINWVKQRPGQGLEWIGNIYPSDSYTNYNQKFKDKATLTVDKSSSTAYMQLSSPTSEDSAVYYCTRSWRGNSFDYWGQGTTLTVSS
VL: DIVMTQSPSSLTVTAGEKVTMSCKSSQSLLNSGNQKNYLTWYQQKPGQPPKLLIYWASTRESGVPDRFTGSGSGTDFTLTISSVQAEDLAVYYCQNDYSYPFTFGSGTKLEIK

binding result [4]: binds
B16: 413H9F8-VL-N31E (antibody, human IgG1, kappa, V domains shown)
VH: DVQLVESGGGSVQPGGSRRLSCAASGFTFSSFGMHWVRQAPEKGLEWVAYISSGSSPIYYVDKLKGRFTVSRDNPKNTLFLQMTSLRSEDTAMYYCARAGYAVRNALDYWGQGTSITVSS
VL: DIVMTQSPSSLSVSVGEKVTLSCKSSQSLLESGNQKNYLAWYQQKTGQPPKLLIYGASTRESGVPDRFIGSGSGTDFTLTISSVQAEDLAVYFCQNDLFYPLTFGAGTKLELKR
notes: as for B1

EC50 [5]: 8.3 nM
B17: 413H9F8 (mouse hybridoma antibody) (antibody, V domains shown)
VH: DVQLVESGGGSVQPGGSRRLSCAASGFTFSSFGMHWVRQAPEKGLEWVAYISSGSSPIYYVDKLKGRFTVSRDNPKNTLFLQMTSLRSEDTAMYYCARAGYAVRNALDYWGQGTSITVSS
VL: DIVMTQSPSSLSVSVGEKVTLSCKSSQSLLNSGNQKNYLAWYQQKTGQPPKLLIYGASTRESGVPDRFIGSGSGTDFTLTISSVQAEDLAVYFCQNDLFYPLTFGAGTKLELK
notes: as for B2
